# Results from patent US10428093B2, “Lipid co-factor essential for cell density signaling” (priority 2013, dated 2019).
# B1: SNZR 1P: secreted 94 AA cell density signal protein factor (chicken, SEQ ID NO:3; tagged form SEQ ID NO:13) (protein, listed as Gallus gallus)
# chain: EPLAVVDLRPQSSVKVEVHFQDKVEEMSIRLDQTVAELKKHLKTVVQLSTSNMLLFYLDQEAPFGPEEMKYSSRALHSYGIRDGDKIYVEPRMK
# System: U2OS cells
# Assay: Growth of U2OS cells after adding concentrated conditioned media or free protein factor
# Format: cell-based, human
# Conditions: free factor expressed in E. coli added at 5 μg/ml, after a week (6 days), vs control
# Experimental: FIGS. 13A-F—The cofactor has a unique lipid makeup depending on the producing cell type but would SNZR 1P1L and SNZR 1P2L give the same or different response if added to the same cell type. In this case we used the control cell line U2OS and added a 5× concentrated condition medium from PAT cells or from U2OS-pESY1c cells. An additional test was done to see if the free factor made in E. coli had any activity on U2OS cells if applied at a high concentration (5 μg/ml).
# To answer these questions, U2OS cells were grown in regular media as a control, or with 5× concentrated condition media from U2OS-pESY1c cells expressing the SNZR 1P1L, and from 5× concentrated condition media from PAT cells expressing SNZR 1P2L. In addition, SNZR 1P purified from E. coli, was added at 5 μg/ml—3 orders of magnitude greater than the estimated level in CM (FIG. 13a,b,c,d). […] The high level of the protein factor was chosen because it seemed unlikely that the factor without the cofactor would have a lot of activity and small amounts of activity are difficult to detect by visualization.
# U2OS cells were grown in F12/DMEM medium with 0.2% fetal bovine serum. In 75 cm^2 flasks the medium, […], was changed every other day. When the cells first overgrow the monolayer, they are very sensitive to medium volume and will apoptose if too much medium is added.
# CM was produced by growing cells in 225 cm^2 flasks. […]
molecule,measurement,setting,value
B1,Effect on growth of U2OS cells,,did not appear to change the cultures
same,Effect on growth of U2OS cells,listed as secreted form of the factor,did not appear to increase growth
